Test results: patent US20210403565A1 (BIOATLA, published 2021)

Legend:
[1] = target: T1, recombinant human CTLA4 extracellular domain (human, UniProt P16410 36-161); assay: ELISA, wells coated with human CTLA4, assay pH 7.4; lot 6972 in His buffer, T2W; unit from the axis Log[ng/mL]
T1 construct: extracellular domain; also called huCTLA-4
T1 sequence (looked up): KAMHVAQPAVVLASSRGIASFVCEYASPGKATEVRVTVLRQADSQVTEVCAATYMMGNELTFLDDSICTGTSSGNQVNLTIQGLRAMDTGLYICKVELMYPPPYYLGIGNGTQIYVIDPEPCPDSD
Experimental: (§1) Both ELISA and FACS analysis were used to measure the binding activity. […] The amount of bound antibodies was quantified using anti-human IgG antibody conjugated to HRP. The absorbance at 450 nm in each measurement was proportional to the amount of antibodies bound. […] EC50 value (in ng/mL) for binding to human CTLA4 was determined by absorbance at 450 nm against antibody concentration with Prism variable slope of four-parameter dose-response curve, which was calculated using the nonlinear fit (variable slope, four parameters) model built into GraphPad Prism software (version 7.03). The buffers tested included His buffer (His), Tris buffer (Tris), Glutamine buffer (Glu) and no buffer.

[2] = target: T1, recombinant human CTLA4 extracellular …; assay: ELISA, immobilised huCTLA-4, table head pH 7.0 (text: pH 7.4), Jun. 29, 2017
[3] = target: T2, human CTLA4 expressed on the cell surface of CHO cells (human, UniProt P16410 36-223); assay: FACS, cells expressing human CTLA4, assay pH 7.4, MFI; lot 6972 in His buffer, T2W; unit from the axis Log[ng/mL]
T2 construct: whole, on cells; also called CHO-huCTLA4; huCTLA4
T2 sequence (looked up): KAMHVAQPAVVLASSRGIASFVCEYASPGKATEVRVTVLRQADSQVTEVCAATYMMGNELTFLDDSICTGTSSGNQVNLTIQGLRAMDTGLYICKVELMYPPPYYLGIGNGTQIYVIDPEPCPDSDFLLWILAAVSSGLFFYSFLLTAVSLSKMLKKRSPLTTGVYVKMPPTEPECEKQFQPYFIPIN
Experimental: (§2) The amount of bound antibodies was quantified using anti-human IgG antibody conjugated to fluorophores. The MFI in each reaction was proportional to the amount of antibodies bound. The EC₅₀ value (in ng/mL) for binding to human CTLA4 on cells was determined by MFI of the singlets population against antibody concentration with a Prism variable slope of four-parameter dose-response curve, which was calculated using the nonlinear fit (variable slope, four parameters) model built into GraphPad Prism software (version 7.03).

[4] = target: T1, recombinant human CTLA4 extracellular …; assay: ELISA, immobilised huCTLA-4, table head pH 7.0 (text: pH 7.4), mean +/- SD
[5] = target: T2, human CTLA4 expressed on the cell …; assay: FACS, cells expressing human CTLA4, assay pH 7.4, MFI; lot 6972 control without test buffer; same column repeated in FIG. 10B and FIG. 10C; unit from the axis Log[ng/mL]
Experimental: as §2

[6] = target: T1, recombinant human CTLA4 extracellular …; assay: ELISA, wells coated with human CTLA4, assay pH 6.0; lot 6972 in Glu buffer, T2W; unit from the axis Log[ng/mL]
Experimental: as §1

[7] = target: T1, recombinant human CTLA4 extracellular …; assay: ELISA, wells coated with human CTLA4, assay pH 6.0; lot 6972 in His buffer, T2W; unit from the axis Log[ng/mL]
Experimental: as §1

[8] = target: T2, human CTLA4 expressed on the cell …; assay: FACS, cells expressing human CTLA4, assay pH 7.4, MFI; lot 6972 in Tris buffer, T0; unit from the axis Log[ng/mL]
Experimental: as §2

[9] = target: T2, human CTLA4 expressed on the cell …; assay: FACS, cells expressing human CTLA4, assay pH 6.0, MFI; lot 6978 in Tris buffer, T2W; unit from the axis Log[ng/mL]
Experimental: as §2

[10] = target: T1, recombinant human CTLA4 extracellular …; assay: ELISA, wells coated with human CTLA4, assay pH 7.4; lot 6978 in His buffer, T2W; curve still rising at log 3 (OD450 below 0.2), no plateau; unit from the axis Log[ng/mL]
Experimental: as §1

[11] = target: T2, human CTLA4 expressed on the cell …; assay: FACS, cells expressing human CTLA4, assay pH 6.0, MFI; lot 6978 control without test buffer; same column repeated in FIG. 10E and FIG. 10F; unit from the axis Log[ng/mL]
Experimental: as §2

[12] = target: T2, human CTLA4 expressed on the cell …; assay: FACS, CHO cells expressing human CTLA4 (CHO-huCTLA-4), pH 7.4, MFI; curve still rising at log 5, no plateau; no unit in the table, unit from the axis Log Antibodies [ng/ml]
Experimental: The amount of antibodies bound on the cells was quantified using anti-human IgG antibody conjugated to fluorophores. EC₅₀ values at pH 6.0 and 7.4 for binding to cells were calculated using the nonlinear fit (variable slope, four parameters) model built into GraphPad Prism software (version 7.03). The expression levels of human CTLA4 or cynomolgus CTLA4 on the surface of the CHO cells were determined using a BD QuantiBRITE™ PE kit.
At least two independent duplicate FACS experiments were performed for each antibody using each of the cell lines. The binding activities at different concentrations of the antibodies are plotted in these figures.

[13] = target: T1, recombinant human CTLA4 extracellular …; assay: ELISA, wells coated with human CTLA4, assay pH 6.0; lot 6978 in Glu buffer, T0; unit from the axis Log[ng/mL]
Experimental: as §1

[14] = target: T1, recombinant human CTLA4 extracellular …; assay: ELISA, wells coated with human CTLA4, assay pH 6.0; lot 6978 in Tris buffer, T0; unit from the axis Log[ng/mL]
Experimental: as §1

B1: BA-087-05-19 (antibody, V domains shown)
VH: EVQLVESGGGLVQPGGSLRLSCAASGFTFSHYTMHWVRQAPGKGLEWVSFISYDGNNKYYADSVKGRFTISRDNSKNTLYLQMNSLRAEDTAVYYCARTGWLGPFDYWGQGTLVTVSS
VL: AIQLTQSPSSLSASVGDRVTITCRASQYVGSSYLAWYLQKPGQSPQLLIYGAFSRATGIPARFSGSGSGTEFTLTISSLQSEDFAVYYCQQDGSSPWTFGQGTKVEIK
notes: Detected with anti-human IgG and a molecular weight of 146 kDa was used in SPR, so it was tested as a whole IgG; also called BA-087-05-019; BA-087-05-19 (# 6972)
An EC50 [1] of 0.0758 µg/mL, an EC50 [2] of 0.0934 µg/mL and an EC50 [3] of 0.615 µg/mL were found for B1 in this work. It also gave an EC50 [4] of 0.0598 µg/mL, an EC50 [5] of 0.428 µg/mL and an EC50 [6] of 0.00266 µg/mL. It also gave an EC50 [7] of 0.00704 µg/mL and an EC50 [8] of 0.681 µg/mL.

B2: BA-087-08-32 (antibody, V domains shown)
VH: EVQLVQSGAEVKKPGATVKISCKVSGFTFSHYTMHWIRQSPSRGLEWLGFISYDGNYKYYADSVKGRFTISRDNAKNSLYLQMNSLRAEDTAVYYCARTGWLGPFDYWGQGTLVTVSS
VL: EIVMTQSPATLSVSPGERATLSCRASQSVGSSYLAWYQQKPGKAPKLLIYGAFSRATGVPSRFSGSGSGTDFTLTISSLQPEDFATYYCQQDGSSPWTFGQGTKVEIK
notes: Detected with anti-human IgG and a molecular weight of 146 kDa was used in SPR, so it was tested as a whole IgG; also called BA-087-08-032; BA-087-08-32 (# 6978)
An EC50 [9] of ~0.152 µg/mL, an EC50 [10] of 1.07 µg/mL and an EC50 [11] of 0.158 µg/mL were found for B2 in this work. The EC50 [12] was 41.1 µg/mL, the EC50 [13] was 0.0337 µg/mL and the EC50 [14] was 0.0171 µg/mL.
